Here are results for 14 molecules from patent US20110288003A1 (INDIANA UNIVERSITY RESEARCH AND TECHNOLOGY, published 2011).

What all share (test): cell-based or functional assay
The target of experiment [1] is T1, glucagon receptor (UniProt P47871 26-477, limits assumed).
Experiment [2] addresses T1, glucagon receptor. The source holds these as a separate data set.
The target of experiment [3] is T2, GLP-1 receptor (UniProt P43220 24-463, limits assumed).
In experiment [4] the target is T2, GLP-1 receptor. This is another data set of the same source.
In experiment [5] the target is T1, glucagon receptor. The source holds these as a separate data set.
For experiment [6], the target named is T2, GLP-1 receptor. This is another data set of the same source.
Target sequence in this assay (P43220 24-463 limits assumed): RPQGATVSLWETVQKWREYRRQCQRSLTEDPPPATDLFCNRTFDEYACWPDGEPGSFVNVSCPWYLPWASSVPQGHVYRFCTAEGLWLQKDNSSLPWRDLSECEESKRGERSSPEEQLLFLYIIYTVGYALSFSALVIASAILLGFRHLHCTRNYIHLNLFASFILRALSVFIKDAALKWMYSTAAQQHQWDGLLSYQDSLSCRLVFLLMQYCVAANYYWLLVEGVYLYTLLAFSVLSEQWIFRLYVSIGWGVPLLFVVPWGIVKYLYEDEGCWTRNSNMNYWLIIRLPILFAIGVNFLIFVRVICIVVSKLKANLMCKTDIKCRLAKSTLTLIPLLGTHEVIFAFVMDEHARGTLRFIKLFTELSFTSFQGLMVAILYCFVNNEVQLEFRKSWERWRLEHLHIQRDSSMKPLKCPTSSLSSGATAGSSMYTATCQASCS

Like-named read-outs stand apart in the source and are kept apart here. Bridge positions count the residues as written; N and C are the ends. Ends that are not written are not given here. PLA = phenyl lactic acid

T1 sequence (P47871 26-477 limits assumed): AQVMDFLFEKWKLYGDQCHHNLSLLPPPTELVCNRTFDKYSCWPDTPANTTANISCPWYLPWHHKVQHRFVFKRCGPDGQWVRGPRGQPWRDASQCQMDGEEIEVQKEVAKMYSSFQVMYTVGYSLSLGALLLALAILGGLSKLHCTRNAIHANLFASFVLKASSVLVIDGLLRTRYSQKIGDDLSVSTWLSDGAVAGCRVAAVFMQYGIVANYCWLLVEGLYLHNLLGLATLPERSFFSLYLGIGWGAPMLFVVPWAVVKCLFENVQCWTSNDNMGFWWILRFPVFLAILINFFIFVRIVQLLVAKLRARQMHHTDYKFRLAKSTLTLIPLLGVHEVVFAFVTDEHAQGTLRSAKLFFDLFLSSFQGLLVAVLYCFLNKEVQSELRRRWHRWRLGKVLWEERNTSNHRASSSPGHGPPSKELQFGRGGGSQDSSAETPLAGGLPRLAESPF

Regarding {PLA}-TSDYSKYLDERRAKDFVQWLMDT (lactam 10-14) [[PLA6, D9, E16K20(lactam), D28]G(6-29)], the “Glucagon IC50” value with glucagon receptor [1] is 10 to 30 nM; in the experiment with glucagon receptor [2] it was 6 nM. For the same molecule, the “GLP-1 EC50” value in the experiment with GLP-1 receptor [3] turned out to be 4 nM.
For the molecule {PLA}-TSDYSKYLDERRAQDFVQWLMDT (lactam 6-10) [[PLA6, D9, K12E16(Lactam), D28]G(6-29)], the “Glucagon IC50” value in the experiment with glucagon receptor [1] came out at 63 nM. Also, the “GLP-1 EC50” value in the experiment with GLP-1 receptor [4] was 177 nM.
On to HSQGTFTSDYARYLDARRAREFIKWLVRGRG [ANK2 (Bayer peptide)], for which the “GLP-1 EC50” value with GLP-1 receptor [4] is 0.28 nM.

B1: [PLA6, E9, E16K20(Lactam)] glucagon(6-39) (Table 13, peptide 6) (peptide)
peptide: TSEYSKYLDERRAKDFVQWLMNTGPSSGAPPPS
modifications: PLA (phenyl lactic acid, in place of Phe6 of glucagon) at the N-terminus before the printed letters; lactam between E16 and K20 (glucagon numbering)
Take B1: the “GLP-1 EC50” value with GLP-1 receptor [3] amounted to 20 nM.
Turning to AEGTFTSEYSKYLDERRAKDFVQWLMDT (lactam 15-19) [[A2E3, E16K20(Lactam), D28]G(2~29)], the “Glucagon IC50” value with glucagon receptor [1] is 63 nM.
In the case of {PLA}-TSEYSKYLDERRAQDFVQWLMNTGPSSGAPPPS (lactam 6-10) [[PLA6, E9, K12E16(Lactam) glucagon(6-39) (Table 13, peptide 5)], the “Glu IC50” value with glucagon receptor [5] was 72 nM. Also, the “GLP-1 EC50” value in the experiment with GLP-1 receptor [6] came to 6 nM.

B2: [E9, E16K20(lactam), D28]G(4~29) (peptide)
peptide: GTFTSEYSKYLDERRAKDFVQWLMDT-NH2
modifications: lactam 13-17; N-terminus assumed
SMILES: CSCC[C@H](NC(=O)[C@H](CC(C)C)NC(=O)[C@H](Cc1c[nH]c2ccccc12)NC(=O)[C@H](CCC(N)=O)NC(=O)[C@@H](NC(=O)[C@H](Cc1ccccc1)NC(=O)[C@H](CC(=O)O)NC(=O)[C@@H]1CCCCNC(=O)CC[C@H](NC(=O)[C@H](CC(=O)O)NC(=O)[C@H](CC(C)C)NC(=O)[C@H](Cc2ccc(O)cc2)NC(=O)[C@H](CCCCN)NC(=O)[C@H](CO)NC(=O)[C@H](Cc2ccc(O)cc2)NC(=O)[C@H](CCC(=O)O)NC(=O)[C@H](CO)NC(=O)[C@@H](NC(=O)[C@H](Cc2ccccc2)NC(=O)[C@@H](NC(=O)CN)[C@@H](C)O)[C@@H](C)O)C(=O)N[C@@H](CCCNC(=N)N)C(=O)N[C@@H](CCCNC(=N)N)C(=O)N[C@@H](C)C(=O)N1)C(C)C)C(=O)N[C@@H](CC(=O)O)C(=O)N[C@H](C(N)=O)[C@@H](C)O
As for B2, in the experiment with glucagon receptor [1], the “Glucagon IC50” value was 10 to 30 nM. In addition, the “GLP-1 EC50” value with GLP-1 receptor [4] was found to be 151 nM.
As to FTSEYSKYLDERRAQDFVQWLMNTGPSSGAPPPS [E9, K12, E16 glucagon(6-39) (Table 13, peptide 1)], the “Glucagon IC50” value in the experiment with glucagon receptor [2] came to 762 nM. The “Glu IC50” value with glucagon receptor [5] is 762 nM.
Turning to FTSEYSKYLDERRAQDFVQWLMNTGPSSGAPPPS (lactam 7-11) [E9, K12E16(lactam) glucagon(6-39) (Table 13, peptide 2)], the “Glucagon IC50” value in the experiment with glucagon receptor [2] amounted to 2010 nM. Besides, the “GLP-1 EC50” value with GLP-1 receptor [3] and with GLP-1 receptor [6] was 63 nM in each case. Also, the “Glu IC50” value with glucagon receptor [5] turned out to be 2010 nM.
FTSDYSKYLDERRAQDFVQWLMNTGPSSGAPPPS (lactam 7-11) [D9, K12E16(Lactam) glucagon(6-39) (Table 13, peptide 4)]: the “Glu IC50” value with glucagon receptor [5] was determined as 828 nM. The “GLP-1 EC50” value with GLP-1 receptor [6] amounted to 119 nM.
For FTSEYSKYLDERRAKDFVQWLMNTGPSSGAPPPS (lactam 11-15) [E9, E16K20(lactam) glucagon(6-39) (Table 13, peptide 3)], the “Glucagon IC50” value with glucagon receptor [2] amounted to 42 nM. The “GLP-1 EC50” value with GLP-1 receptor [3] and in the experiment with GLP-1 receptor [6] was 36 nM in each case. In the experiment with glucagon receptor [5], the “Glu IC50” value is 42 nM.
Regarding {PLA}-TSDYSKYLDERRAQDFVEWLMKT (lactam 18-22) [[PLA6, D9, E16, E24K28(lactam)]G(6~29)], in the experiment with glucagon receptor [1], the “Glucagon IC50” value stood at 22 nM. Also, the “GLP-1 EC50” value with GLP-1 receptor [4] is 289 nM.
For the molecule {PLA}-TSDYSKYLDERRAKDFVEWLMDT (lactam 14-18) [[PLA6, D9, E16, K20E24(Lactam), D28]G(6-29)], the “Glucagon IC50” value in the experiment with glucagon receptor [1] amounted to 74 nM. In addition, in the experiment with GLP-1 receptor [4], the “GLP-1 EC50” value is 239 nM.

B3: [A2E3, E16K20(Lactam), D28]G(1~29) (peptide)
peptide: HAEGTFTSEYSKYLDERRAKDFVQWLMDT-NH2
modifications: lactam 16-20; N-terminus assumed
SMILES: CSCC[C@H](NC(=O)[C@H](CC(C)C)NC(=O)[C@H](Cc1c[nH]c2ccccc12)NC(=O)[C@H](CCC(N)=O)NC(=O)[C@@H](NC(=O)[C@H](Cc1ccccc1)NC(=O)[C@H](CC(=O)O)NC(=O)[C@@H]1CCCCNC(=O)CC[C@H](NC(=O)[C@H](CC(=O)O)NC(=O)[C@H](CC(C)C)NC(=O)[C@H](Cc2ccc(O)cc2)NC(=O)[C@H](CCCCN)NC(=O)[C@H](CO)NC(=O)[C@H](Cc2ccc(O)cc2)NC(=O)[C@H](CCC(=O)O)NC(=O)[C@H](CO)NC(=O)[C@@H](NC(=O)[C@H](Cc2ccccc2)NC(=O)[C@@H](NC(=O)CNC(=O)[C@H](CCC(=O)O)NC(=O)[C@H](C)NC(=O)[C@@H](N)Cc2c[nH]cn2)[C@@H](C)O)[C@@H](C)O)C(=O)N[C@@H](CCCNC(=N)N)C(=O)N[C@@H](CCCNC(=N)N)C(=O)N[C@@H](C)C(=O)N1)C(C)C)C(=O)N[C@@H](CC(=O)O)C(=O)N[C@H](C(N)=O)[C@@H](C)O
As for B3, in the experiment with glucagon receptor [1], the “Glucagon IC50 (nM); PA = partial antagonist” value worked out at 130 nM. For the same molecule, in the experiment with GLP-1 receptor [4], the “GLP-1 EC50” value turned out to be 0.2 nM.
